Columns and labels:
Experiment in all cases: ITC; 5 mM RRESEI in the syringe, PDZ1-2, PDZ1 or PDZ2 in the cell at nominal 0.13 mM; 25°C; 20 mM Tris-HCl, 150 mM NaCl, pH8.5; MicroCal VP-ITC; PDZ1-2 fitted assuming a single class of sites
Details in all cases: both partners purified
[1] = target: T1, PSD-95 PDZ1 domain (residues 55-152) (human, UniProt P78352 55-152)
T1 construct: Gly-Pro left at the N-terminus after HRV 3C cleavage of the tag; PSD-95, human, PDZ1, residues 55-152 of UniProt P78352 [98-195 of P78352-2]; Vector pOPINF; source: E. coli BL21(DE3), purified (Ni-NTA, HRV 3C tag cleavage, negative Ni-NTA, Superdex200 SEC); not shown: His6, N-terminal, cleaved
T1 sequence (P78352 other isoform, or with tags, fused parts or gaps): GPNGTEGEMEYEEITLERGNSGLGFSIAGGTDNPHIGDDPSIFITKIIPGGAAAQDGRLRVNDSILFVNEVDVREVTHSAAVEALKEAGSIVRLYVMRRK

[2] = target: T2, PSD-95 PDZ1-2 dual domain (residues 55-249) (human, UniProt P78352 55-249)
T2 construct: PSD-95 (Disks large homologue 4, SAP-90), human, residues 55-249 of UniProt P78352 [98-292 of P78352-2]; PDZ1, 8-residue linker, PDZ2; cleaved construct 20.8 kDa; ends printed as NGT- and -SNA; Vector pOPINF; SASBDB entries: apo SASDGE5, SASDGF5, SASDGG5; with GSH SASDGH5, SASDGJ5, SASDGK5; also called apo:PDZ1-2; dual PDZ domain; source: E. coli BL21(DE3), purified (Ni-NTA, HRV 3C tag cleavage, …)
T2 sequence (P78352 other isoform, or with tags, fused parts or gaps): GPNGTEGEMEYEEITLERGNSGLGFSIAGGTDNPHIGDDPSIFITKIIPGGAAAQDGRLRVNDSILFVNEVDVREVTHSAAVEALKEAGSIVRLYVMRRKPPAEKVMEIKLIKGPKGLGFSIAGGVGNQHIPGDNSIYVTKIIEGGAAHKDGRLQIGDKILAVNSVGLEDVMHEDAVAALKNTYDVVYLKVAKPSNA

[3] = target: T3, PSD-95 PDZ2 domain (residues 154-249) (human, UniProt P78352 154-249)
T3 construct: Gly-Pro left at the N-terminus after HRV 3C cleavage of the tag; PSD-95, human, PDZ2, residues 154-249 of UniProt P78352 [197-292 of P78352-2]; Vector pOPINF; source: E. coli BL21(DE3), purified (Ni-NTA, HRV 3C tag cleavage, negative Ni-NTA, Superdex200 SEC); not shown: His6, N-terminal, cleaved
T3 sequence (P78352 other isoform, or with tags, fused parts or gaps): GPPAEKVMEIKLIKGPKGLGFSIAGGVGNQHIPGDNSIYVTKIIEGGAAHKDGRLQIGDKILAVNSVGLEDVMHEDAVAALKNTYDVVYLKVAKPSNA

Kd [1]: 6 ± 6 µM
Kd [2]: 90 ± 9 µM
Kd [3]: 60 ± 2 µM
B1: RRESEI peptide (last 6 residues of Kir2.1) (peptide)
peptide: RRESEI
notes: last 6 residues of the inwardly rectifying potassium channel Kir2.1 (C-terminus, type I PDZ motif ESEI); also called RRESEI ligand; ligand peptide; source: synthetic peptide, 98% purity (Peptide Protein Research Ltd.)

Source: article doi:10.1101/775726, “How the dual PDZ domain from Postsynaptic density protein 95 clusters ion channels and receptors” (bioRxiv, 2019)
